The source of these data is patent publication US20190161555A1.

Experiment [1] has as its target human/mouse 5T4 chimera aa173-420 (human; mouse) (UniProt Q13641). The experiment can be described thus: flow cytometry, cells with 5T4 chimera; % positive cells over that of the best clone.
The target in experiment [2] is Chimeric OX40 construct 1546 (human; mouse) (UniProt P43489). Kind of experiment: flow cytometry, 293-F cells transfected with the construct.
The target in experiment [3] is Chimeric OX40 construct 1549 (human; mouse) (UniProt P47741). The description is as above.
The target in experiment [4] is Chimeric OX40 construct 1548 (human; mouse) (UniProt P43489). The experiment is described as above.
Experiment [5] concerns the target Chimeric OX40 construct 1547 (human; mouse) (UniProt P43489). The experiment is described as above.
The target in experiment [6] is Chimeric OX40 construct 1544 (human; mouse) (UniProt P47741). The description is as above.
Experiment [7] concerns the target Chimeric OX40 construct 1545 (human; mouse) (UniProt P43489). The description is as above.

Chain of Chimeric OX40 construct 1544 (human; mouse) (P43489 other isoform, or with tags, fused parts or gaps mutant, form in doubt): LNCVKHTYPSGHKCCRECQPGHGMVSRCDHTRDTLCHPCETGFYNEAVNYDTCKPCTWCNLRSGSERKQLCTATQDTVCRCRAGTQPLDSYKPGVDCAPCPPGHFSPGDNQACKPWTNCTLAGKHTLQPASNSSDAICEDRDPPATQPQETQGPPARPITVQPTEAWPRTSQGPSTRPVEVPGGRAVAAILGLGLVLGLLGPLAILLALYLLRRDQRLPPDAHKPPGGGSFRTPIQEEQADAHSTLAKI
Chain of Chimeric OX40 construct 1547 (human; mouse) (P43489 other isoform, or with tags, fused parts or gaps mutant, form in doubt): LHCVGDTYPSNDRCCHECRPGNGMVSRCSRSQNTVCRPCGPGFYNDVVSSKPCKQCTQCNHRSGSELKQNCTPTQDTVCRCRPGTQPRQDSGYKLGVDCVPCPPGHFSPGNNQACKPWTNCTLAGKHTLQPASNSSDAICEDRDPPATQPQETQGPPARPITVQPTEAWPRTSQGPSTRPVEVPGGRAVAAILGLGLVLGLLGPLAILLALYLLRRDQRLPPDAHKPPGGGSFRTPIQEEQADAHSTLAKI
Chain of Chimeric OX40 construct 1548 (human; mouse) (P43489 other isoform, or with tags, fused parts or gaps mutant, form in doubt): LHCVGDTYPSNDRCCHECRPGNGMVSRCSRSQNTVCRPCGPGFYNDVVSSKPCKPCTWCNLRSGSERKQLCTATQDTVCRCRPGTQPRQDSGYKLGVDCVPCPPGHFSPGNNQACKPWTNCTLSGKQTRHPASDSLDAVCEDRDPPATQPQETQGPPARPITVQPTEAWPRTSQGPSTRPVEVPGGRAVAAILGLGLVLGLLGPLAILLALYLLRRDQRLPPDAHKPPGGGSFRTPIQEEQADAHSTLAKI
Chain of Chimeric OX40 construct 1545 (human; mouse) (P43489 other isoform, or with tags, fused parts or gaps mutant, form in doubt): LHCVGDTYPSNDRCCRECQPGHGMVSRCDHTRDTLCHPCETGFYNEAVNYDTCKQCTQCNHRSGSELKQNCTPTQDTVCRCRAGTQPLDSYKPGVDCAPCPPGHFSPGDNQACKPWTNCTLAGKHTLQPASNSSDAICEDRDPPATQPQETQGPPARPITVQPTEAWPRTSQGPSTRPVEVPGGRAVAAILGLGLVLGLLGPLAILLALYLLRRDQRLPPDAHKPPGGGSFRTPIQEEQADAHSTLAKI
Chain of Chimeric OX40 construct 1546 (human; mouse) (P43489 other isoform, or with tags, fused parts or gaps mutant, form in doubt): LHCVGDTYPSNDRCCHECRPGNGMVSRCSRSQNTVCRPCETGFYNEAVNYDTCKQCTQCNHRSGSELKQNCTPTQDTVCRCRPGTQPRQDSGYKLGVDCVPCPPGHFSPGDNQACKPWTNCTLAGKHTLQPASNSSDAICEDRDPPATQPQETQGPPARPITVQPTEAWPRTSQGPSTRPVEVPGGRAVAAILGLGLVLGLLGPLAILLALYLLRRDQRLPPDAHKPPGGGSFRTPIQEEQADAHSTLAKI
Chain of human/mouse 5T4 chimera aa173-420 (human; mouse) (Q13641 other isoform, or with tags, fused parts or gaps mutant limits assumed, form in doubt): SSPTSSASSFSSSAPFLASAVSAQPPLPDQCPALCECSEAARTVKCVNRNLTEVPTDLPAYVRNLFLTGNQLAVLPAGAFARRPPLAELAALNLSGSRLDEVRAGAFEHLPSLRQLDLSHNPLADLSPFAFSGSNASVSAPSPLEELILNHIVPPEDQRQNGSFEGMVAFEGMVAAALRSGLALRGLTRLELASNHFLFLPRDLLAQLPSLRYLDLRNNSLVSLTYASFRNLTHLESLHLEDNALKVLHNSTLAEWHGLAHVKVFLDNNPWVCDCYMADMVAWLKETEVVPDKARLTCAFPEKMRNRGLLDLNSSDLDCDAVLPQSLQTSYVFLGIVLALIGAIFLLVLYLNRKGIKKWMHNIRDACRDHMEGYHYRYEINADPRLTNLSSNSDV

B1: 1212/1213 (antibody, IgG1, V domains shown)
VH: EVQLLESGGGLVQPGGSLRLSCAASGFTFSSYAMSWVRQAPGKGLEWVSYISSYGGYTSYADSVKGRFTISRDNSKNTLYLQMNSLRAEDTAVYYCARYHSGVLDYWGQGTLVTVSS
VL: DIQMTQSPSSLSASVGDRVTITCRASQSISSYLNWYQQKPGKAPKLLIYAASSLQSGVPSRFSGSGSGTDFTLTISSLQPEDFATYYCQQYYYHYLLTFGQGTKLEIK
Take B1: in experiment [1], the normalized % positive cells is -0.01.

B2: 1526/1527 (antibody, V domains shown)
VH: EVQLLESGGGLVQPGGSLRLSCAASGFTFSGYSMYWVRQAPGKGLEWVSGIGYSGYGTYYADSVKGRFTISRDNSKNTLYLQMNSLRAEDTAVYYCARYYFHDYAAYSLDYWGQGTLVTVSS
VL: DIQMTQSPSSLSASVGDRVTITCRASQSISSYLNWYQQKPGKAPKLLIYAASSLQSGVPSRFSGSGSGTDFTLTISSLQPEDFATYYCQQYGSDSLLTFGQGTKLEIK
For the molecule B2, the relative MFI (fold over isotype control) turned out to be 0.9 in experiment [2]; 8.5 in experiment [3]; 12.7 in experiment [4]; 1 in experiment [5]; 1.1 in experiment [6]; 1.3 in experiment [7].

B3: 1524/1525 (antibody, V domains shown)
VH: EVQLLESGGGLVQPGGSLRLSCAASGFTFGSYYMGWVRQAPGKGLEWVSSIGSYYGYTYYADSVKGRFTISRDNSKNTLYLQMNSLRAEDTAVYYCARHDYGALDYWGQGTLVTVSS
VL: DIQMTQSPSSLSASVGDRVTITCRASQSISSYLNWYQQKPGKAPKLLIYAASSLQSGVPSRFSGSGSGTDFTLTISSLQPEDFATYYCQQYGPSGLFTFGQGTKLEIK
As to B3, the relative MFI (fold over isotype control) in experiment [2] came out at 0.9; in experiment [3], 11.2; in experiment [4] it was 15.4; in experiment [5], 1; in experiment [6], 1.5; in experiment [7], 0.9.

B4: 1166/1167 (antibody, V domains shown)
VH: EVQLLESGGGLVQPGGSLRLSCAASGFTFGGYYMSWVRQAPGKGLEWVSAISGSGGSTYYADSVKGRFTISRDNSKNTLYLQMNSLRAEDTAVYYCARYDYASMDYWGQGTLVTVSS
VL: DIQMTQSPSSLSASVGDRVTITCRASQSISSYLNWYQQKPGKAPKLLIYAASSLQSGVPSRFSGSGSGTDFTLTISSLQPEDFATYYCQQYYWYGLSTFGQGTKLEIK
Regarding B4, the relative MFI (fold over isotype control) in experiment [2] was 0.8; in experiment [3], 11.3; in experiment [4], 15.8; in experiment [5], 15.2; in experiment [6], 14.2; in experiment [7], 1.

B5: 1206/1207 (antibody, V domains shown)
VH: EVQLLESGGGLVQPGGSLRLSCAASGFTFSGSSMSWVRQAPGKGLEWVSSIYYSGSGTYYADSVKGRFTISRDNSKNTLYLQMNSLRAEDTAVYYCARYGRNVHPYNLDYWGQGTLVTVSS
VL: DIQMTQSPSSLSASVGDRVTITCRASQSISSYLNWYQQKPGKAPKLLIYAASSLQSGVPSRFSGSGSGTDFTLTISSLQPEDFATYYCQQGYYYLPTFGQGTKLEIK
Regarding B5, in experiment [1], the normalized % positive cells amounted to 0.3.

B6: 1514/1515 (antibody, V domains shown)
VH: EVQLLESGGGLVQPGGSLRLSCAASGFTFGYYYMSWVRQAPGKGLEWVSGISSYGSYTYYADSVKGRFTISRDNSKNTLYLQMNSLRAEDTAVYYCARSGYSNWANSFDYWGQGTLVTVSS
VL: DIQMTQSPSSLSASVGDRVTITCRASQSISSYLNWYQQKPGKAPKLLIYAASSLQSGVPSRFSGSGSGTDFTLTISSLQPEDFATYYCQQGDYTLFTFGQGTKLEIK
Regarding B6, the relative MFI (fold over isotype control) in experiment [2] was 0.9; in experiment [3], 10.6; in experiment [4] it was 17.2; in experiment [5], 1.1; in experiment [6] it was 11.6; in experiment [7] it was 1.2.
